Assay results as given in patent US20220041709A1 (MITSUBISHI TANABE PHARMA, published 2022).

Columns and labels:
Human IL-33 [1] = target: T1, Human IL-33 (human, UniProt O95760 112-270, limits assumed); experiment: ELISA on plate-coated human IL-33, HRP anti-human IgG detection; 10 mg/mL formulation stored 2 years at 2 to 8 C
T1 construct: also called NF-HEV
T1 sequence (looked up): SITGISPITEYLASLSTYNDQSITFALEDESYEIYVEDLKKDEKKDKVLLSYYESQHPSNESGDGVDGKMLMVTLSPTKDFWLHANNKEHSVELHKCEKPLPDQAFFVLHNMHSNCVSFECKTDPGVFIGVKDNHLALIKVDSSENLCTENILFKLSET
Experimental: (§1) Compositions of 10 mg/mL of each human anti-IL-33 monoclonal antibody (A10-1C04, A23-1A05, A25-2C02, A25-3H04 or A26-1F02) were prepared with 10 mM histidine/pH 6/0.02% (w/v) polysorbate 80/3.6% (w/v) sorbitol, and then each filled into a glass vial and sealed with a halogenated butyl rubber stopper, and stored for 1, 2 and 3 years at a temperature of 2 to 8° C. as a long-term stability test. The presence or absence of aggregation was confirmed by visual examination for 5 seconds each under a 2000 to 3750 Lux fluorescent lamp, against white and black board backgrounds. The binding activity was evaluated by the following method. Human IL-33 was added to a 96-well plate and allowed to form a solid phase overnight. BSA was used for blocking, and then the sample solution was added to each well, reacted with HRP-labeled anti-human IgG antibody and colored with TMB. The absorbance at 450 nm and 650 nm was then measured with a plate reader (Molecular Devices Corp.) to determine the EC50 value. The EC50 value of the standard solution was also determined in the same manner, and the ratio was calculated.

Human IL-33 [2] = target: T1, Human IL-33; experiment: ELISA on plate-coated human IL-33, HRP anti-human IgG detection; 10 mg/mL formulation stored 3 years at 2 to 8 C
Experimental: as §1

Human IL-33 [3] = target: T1, Human IL-33; experiment: ELISA on plate-coated human IL-33, HRP anti-human IgG detection; 10 mg/mL formulation, 2 to 8 C, T0
Experimental: as §1

Human IL-33 [4] = target: T1, Human IL-33; experiment: ELISA on plate-coated human IL-33, HRP anti-human IgG detection; 10 mg/mL formulation stored 1 year at 2 to 8 C
Experimental: as §1

Human IL-33 [5] = target: T1, Human IL-33; experiment: ELISA on plate-coated human IL-33, HRP anti-human IgG detection; 150 mg/mL formulation stored 3 months at 2 to 8 C
Experimental: as §1, with “monoclonal” for “Compositions of 10 mg/mL of each human anti-IL-33 monoclonal”, “and stored for 1, 2 and 3 years at a temperature of 2 to” left out
(§2) Compositions of 150 mg/mL of each human anti-IL-33 monoclonal antibody (A10-1C04, A23-1A05, A25-2C02, A25-3H04 or A26-1F02) were prepared with 10 mM histidine/pH 6/0.02% (w/v) polysorbate 80/4.0% (w/v) sorbitol, and then each was filled into a glass vial and sealed with a halogenated butyl rubber stopper, and stored for 3 and 6 months at a temperature of 2 to 8° C. as a long-term stability test. […]

Human IL-33 [6] = target: T1, Human IL-33; experiment: ELISA on plate-coated human IL-33, HRP anti-human IgG detection; 150 mg/mL formulation, 2 to 8 C, T0
Experimental: The presence or absence of aggregation was confirmed by visual examination for 5 seconds each under a 2000 to 3750 Lux fluorescent lamp, against white and black board backgrounds. The binding activity was evaluated by the following method. Human IL-33 was added to a 96-well plate and allowed to form a solid phase overnight. BSA was used for blocking, and then the sample solution was added to each well, reacted with HRP-labeled anti-human IgG antibody and colored with TMB. The absorbance at 450 nm and 650 nm was then measured with a plate reader (Molecular Devices Corp.) to determine the EC50 value. The EC50 value of the standard solution was also determined in the same manner, and the ratio was calculated.
Compositions of 150 mg/mL of each human anti-IL-33 monoclonal antibody (A10-1C04, A23-1A05, A25-2C02, A25-3H04 or A26-1F02) were prepared with 10 mM histidine/pH 6/0.02% (w/v) polysorbate 80/4.0% (w/v) sorbitol, and then each was filled into a glass vial and sealed with a halogenated butyl rubber stopper, and stored for 3 and 6 months at a temperature of 2 to 8° C. as a long-term stability test. The evaluation was conducted by the same method as Example 14.

Human IL-33 [7] = target: T1, Human IL-33; experiment: ELISA on plate-coated human IL-33, HRP anti-human IgG detection; 150 mg/mL formulation stored 6 months at 2 to 8 C
Experimental: as §1, with “monoclonal” for “Compositions of 10 mg/mL of each human anti-IL-33 monoclonal”, “and stored for 1, 2 and 3 years at a temperature of 2 to” left out
as §2

B1: human anti-IL-33 monoclonal antibody A10-1C04 (antibody, human IgG1, lambda, V domains shown)
VH: EVQLLESGGGLVQPGGSLRLSCAASGFTFSDYYMNWVRQAPGKGLEWVSSISRYSSYIYYADSVKGRFTISRDNSKNTLYLQMNSLRAEDTAVYYCARDIGGMDVWGQGTLVTVSS
VL: QSVLTQPPSASGTPGQRVTISCTGSSSNIGAVYDVHWYQQLPGTAPKLLIYRNNQRPSGVPDRFSGSKSGTSASLAISGLRSEDEADYYCQTYDSSRWVFGGGTKLTVLG
notes: Detected with anti-human IgG antibody in the ELISA
- Binding activity (ratio of EC50 to that of the standard solution) (Human IL-33 [1]): 101%
- Binding activity (ratio of EC50 to that of the standard solution) (Human IL-33 [2]): 101%
- Binding activity (ratio of EC50 to that of the standard solution) (Human IL-33 [3]): 100%
- Binding activity (ratio of EC50 to that of the standard solution) (Human IL-33 [4]): 110%
- Binding activity (ratio of EC50 to that of the standard solution) (Human IL-33 [5]): 110%
- Binding activity (ratio of EC50 to that of the standard solution) (Human IL-33 [6]): 115%
- Binding activity (ratio of EC50 to that of the standard solution) (Human IL-33 [7]): 100%
